We go through one protein from publication PMC5608031.

Format in all cases: biochemical, Homo sapiens
Settings in all cases: PAPS

Substrate in series [1]: Oc1cccc2ccccc12
Briefly: radiolabeled sulfonation assay, Km.

Substrate in series [2]: CC(C)(c1ccc(O)cc1)c1ccc(O)cc1
In words: purified protein.

Substrate in series [3]: O=c1c(-c2ccc(O)cc2)coc2cc(O)cc(O)c12
Briefly: purified protein.

Substrate in series [4]: O=c1c(-c2ccc(O)cc2)coc2cc(O)ccc12
Briefly: purified protein.

Substrate in series [5]: O=c1cc(-c2ccc(O)cc2)oc2cc(O)cc(O)c12
Briefly: purified protein.

Substrate in series [6]: O=c1cc(-c2ccc(O)cc2)oc2ccc(O)cc12
Briefly: purified protein.

Substrate in series [7]: O=c1cc(-c2ccccc2)oc2cc(O)cc(O)c12
In words: purified protein.

B1: human cytosolic sulfotransferase 1C4 (hSULT1C4) (Homo sapiens) (protein)
chain: MALHDMEDFTFDGTKRLSVNYVKGILQPTDTCDIWDKIWNFQAKPDDLLISTYPKAGTTWTQEIVELIQNEGDVEKSKRAPTHQRFPFLEMKIPSLGSGLEQAHAMPSPRILKTHLPFHLLPPSLLEKNCKIIYVARNPKDNMVSYYHFQRMNKALPAPGTWEEYFETFLAGKVCWGSWHEHVKGWWEAKDKHRILYLFYEDMKKNPKHEIQKLAEFIGKKLDDKVLDKIVHYTSFDVMKQNPMANYSSIPAEIMDHSISPFMRKGAVGDWKKHFTVAQNERFDEDYKKKMTDTRLTFHFQF
Take B1: the Km (in general, the concentration of substrate that gives half-maximal velocity) in series [1] is 1.1 ± 0.2 µM; in “purified protein [2]”, 32.8 ± 3.2 µM; in the series “purified protein [3]”, 3.3 ± 0.3 µM; in the series “purified protein [4]”, 10.5 ± 1.1 µM; in the series “purified protein [5]”, 1.7 ± 1.0 µM; in “purified protein [6]” it was 10.1 ± 2.1 µM. In addition, the Km in “purified protein [7]” was determined as 0.9 ± 0.4 µM.
